Usually Kd stands for the free concentration of one partner at which half of the binding sites on the other are occupied at equilibrium, for simple one-to-one binding.

B1: H1 L1.59 XENP34622 (antibody, V domains shown)
VH: QLQVQESGPGLVKPSETLSLTCTVSGGSISNSYFSWGWIRQPPGKGLEWIGSFYYGEKTYYNPSLKSRATISIDTSKSQFSLKLSSVTAADTAVYYCPRGPTMIRGVIDSWGQGTLVTVSS
VL: EIVLTQSPATLSLSPGERATLSCRASQSVRSYLAWYQQKPGQAPRLLIYDASNRATGIPARFSGSGSGTDFTLTISSLEPEDFAVYYCQQRSNWPPTFGGGTKVEIK
B2: H1 L1.56 XENP34619 (antibody, V domains shown)
VH: QLQVQESGPGLVKPSETLSLTCTVSGGSISNSYFSWGWIRQPPGKGLEWIGSFYYGEKTYYNPSLKSRATISIDTSKSQFSLKLSSVTAADTAVYYCPRGPTMIRGVIDSWGQGTLVTVSS
VL: EIVLTQSPATLSLSPGERATLSCRASQSVRSYLAWYQQKPGQAPRLLIYDASNRATGIPARFSGSGSGTDFTLTISSLEPEDFAVYYCQQRSNWPLTFGQGTKVEIK
B3: H1 L1.47 XENP34610 (antibody, V domains shown)
VH: QLQVQESGPGLVKPSETLSLTCTVSGGSISNSYFSWGWIRQPPGKGLEWIGSFYYGEKTYYNPSLKSRATISIDTSKSQFSLKLSSVTAADTAVYYCPRGPTMIRGVIDSWGQGTLVTVSS
VL: EIVLTQSPATLSLSPGERATLSCRASQSVRSYLAWYQQKPGQAPRLLIYDASNRATGIPARFSGSGSGTDFTLTISSLEPEDFAVYYCQQRSQWPPTFGQGTKVEIK
B4: H1 L1.60 XENP34623 (antibody, V domains shown)
VH: QLQVQESGPGLVKPSETLSLTCTVSGGSISNSYFSWGWIRQPPGKGLEWIGSFYYGEKTYYNPSLKSRATISIDTSKSQFSLKLSSVTAADTAVYYCPRGPTMIRGVIDSWGQGTLVTVSS
VL: EIVLTQSPATLSLSPGERATLSCRASQSVRSYLAWYQQKPGQAPRLLIYDASNRATGIPARFSGSGSGTDFTLTISSLEPEDFAVYYCQQRSNWPPTFGPGTKVEIK
B5: H1 L1.53 XENP34616 (antibody, V domains shown)
VH: QLQVQESGPGLVKPSETLSLTCTVSGGSISNSYFSWGWIRQPPGKGLEWIGSFYYGEKTYYNPSLKSRATISIDTSKSQFSLKLSSVTAADTAVYYCPRGPTMIRGVIDSWGQGTLVTVSS
VL: EIVLTQSPATLSLSPGERATLSCRASQSVRSYLAWYQQKPGQAPRLLIYDASNRATGIPARFSGSGSGTDFTLTISSLEPEDFAVYYCQQRSNYPPTFGQGTKVEIK
B6: H1 L1.55 XENP34618 (antibody, V domains shown)
VH: QLQVQESGPGLVKPSETLSLTCTVSGGSISNSYFSWGWIRQPPGKGLEWIGSFYYGEKTYYNPSLKSRATISIDTSKSQFSLKLSSVTAADTAVYYCPRGPTMIRGVIDSWGQGTLVTVSS
VL: EIVLTQSPATLSLSPGERATLSCRASQSVRSYLAWYQQKPGQAPRLLIYDASNRATGIPARFSGSGSGTDFTLTISSLEPEDFAVYYCQQRSNWPITFGQGTKVEIK
B7: H1 L1.61 XENP34624 (antibody, V domains shown)
VH: QLQVQESGPGLVKPSETLSLTCTVSGGSISNSYFSWGWIRQPPGKGLEWIGSFYYGEKTYYNPSLKSRATISIDTSKSQFSLKLSSVTAADTAVYYCPRGPTMIRGVIDSWGQGTLVTVSS
VL: EIVLTQSPATLSLSPGERATLSCRASQSVRSYLAWYQQKPGQAPRLLIYDASNRATGIPARFSGSGSGTDFTLTISSLEPEDFAVYYCQQRSNWPPTFGQGTKLEIK
B8: H1 L1.46 XENP34609 (antibody, V domains shown)
VH: QLQVQESGPGLVKPSETLSLTCTVSGGSISNSYFSWGWIRQPPGKGLEWIGSFYYGEKTYYNPSLKSRATISIDTSKSQFSLKLSSVTAADTAVYYCPRGPTMIRGVIDSWGQGTLVTVSS
VL: EIVLTQSPATLSLSPGERATLSCRASQSVRSYLAWYQQKPGQAPRLLIYDASNRATGIPARFSGSGSGTDFTLTISSLEPEDFAVYYCQQRSSWPPTFGQGTKVEIK
B9: H1 L1.45 XENP34608 (antibody, V domains shown)
VH: QLQVQESGPGLVKPSETLSLTCTVSGGSISNSYFSWGWIRQPPGKGLEWIGSFYYGEKTYYNPSLKSRATISIDTSKSQFSLKLSSVTAADTAVYYCPRGPTMIRGVIDSWGQGTLVTVSS
VL: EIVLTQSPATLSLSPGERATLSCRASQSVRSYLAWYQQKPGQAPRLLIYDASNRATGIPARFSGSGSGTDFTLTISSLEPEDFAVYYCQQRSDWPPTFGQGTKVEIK
B10: XENP34305 H1 L1 (antibody, V domains shown)
VH: QLQVQESGPGLVKPSETLSLTCTVSGGSISNSYFSWGWIRQPPGKGLEWIGSFYYGEKTYYNPSLKSRATISIDTSKSQFSLKLSSVTAADTAVYYCPRGPTMIRGVIDSWGQGTLVTVSS
VL: EIVLTQSPATLSLSPGERATLSCRASQSVRSYLAWYQQKPGQAPRLLIYDASNRATGIPARFSGSGSGTDFTLTISSLEPEDFAVYYCQQRSNWPPTFGQGTKVEIK
B11: H1.21 L1 XENP35103 (antibody, V domains shown)
VH: QLQVQESGPGLVKPSETLSLTCTVSGGSISNSAFSWGWIRQPPGKGLEWIGSFYYGEKTYYNPSLKSRATISIDTSKSQFSLKLSSVTAADTAVYYCPRGPTMIRGVIDSWGQGTLVTVSS
VL: EIVLTQSPATLSLSPGERATLSCRASQSVRSYLAWYQQKPGQAPRLLIYDASNRATGIPARFSGSGSGTDFTLTISSLEPEDFAVYYCQQRSNWPPTFGQGTKVEIK
B12: H1.1 L1 XENP34288 (antibody, V domains shown)
VH: QLQVQESGPGLVKPSETLSLTCTVSGGSISNSYFSWGWIRQPPGKGLEWIGSFYYGEKTYYNPSLKSRATISIDTSKSQFSLKLSSVTAADTAVYYCPRGPTVIRGVIDSWGQGTLVTVSS
VL: EIVLTQSPATLSLSPGERATLSCRASQSVRSYLAWYQQKPGQAPRLLIYDASNRATGIPARFSGSGSGTDFTLTISSLEPEDFAVYYCQQRSNWPPTFGQGTKVEIK
B13: H1 L1 XENP34287 (antibody, V domains shown)
VH: QLQVQESGPGLVKPSETLSLTCTVSGGSISNSYFSWGWIRQPPGKGLEWIGSFYYGEKTYYNPSLKSRATISIDTSKSQFSLKLSSVTAADTAVYYCPRGPTMIRGVIDSWGQGTLVTVSS
VL: EIVLTQSPATLSLSPGERATLSCRASQSVRSYLAWYQQKPGQAPRLLIYDASNRATGIPARFSGSGSGTDFTLTISSLEPEDFAVYYCQQRSNWPPTFGQGTKVEIK
B14: XENP37385 – αCD5 (Cd5-A) x αTGFßRII (bispecific antibody)
heavy: EVQLKESGAELVRPGGSVKISCKGSGYTFTNFAIHWVKQSHIKTLEWIGLISTSSGDVSYNQKFKDKATMTVDKSSSTAYMELARLTSEDSAIYYCARHYGANNYFDYWGQGTLVTVSSASTKGPSVFPLAPSSKSTSGGTAALGCLVKDYFPEPVTVSWNSGALTSGVHTFPAVLQSSGLYSLSSVVTVPSSSLGTQTYICNVNHKPSDTKVDKKVEPKSCDKTHTCPPCPAPPVAGPSVFLFPPKPKDTLMISRTPEVTCVVVDVKHEDPEVKFNWYVDGVEVHNAKTKPREEEYNSTYRVVSVLTVLHQDWLNGKEYKCKVSNKALPAPIEKTISKAKGQPREPQVYTLPPSREEMTKNQVSLTCDVSGFYPSDIAVEWESDGQPENNYKTTPPVLDSDGSFFLYSKLTVDKSRWEQGDVFSCSVMHEALHNHYTQKSLSLSPGK
scFv-Fc: QLQVQESGPGLVKPSETLSLTCTVSGGSISNSYFSWGWIRQPPGKGLEWIGSFYYGEKTYYNPSLKSRATISIDTSKSQFSLKLSSVTAADTAVYYCPRGPTVIRGVIDSWGQGTLVTVSSGKPGSGKPGSGKPGSGKPGSEIVLTQSPATLSLSPGERATLSCRASQSVRSYLAWYQQKPGQAPRLLIYDASNRATGIPARFSGSGSGTDFTLTISSLEPEDFAVYYCQQRSNWPPTFGQGTKVEIKEPKSSDKTHTCPPCPAPPVAGPSVFLFPPKPKDTLMISRTPEVTCVVVDVKHEDPEVKFNWYVDGVEVHNAKTKPREEQYNSTYRVVSVLTVLHQDWLNGKEYKCKVSNKALPAPIEKTISKAKGQPREPQVYTLPPSREQMTKNQVKLTCLVKGFYPSDIAVEWESNGQPENNYKTTPPVLDSDGSFFLYSKLTVDKSRWQQGNVFSCSVMHEALHNHYTQKSLSLSPGK
light: EIVLTQSPTIMSASPGEQVTMTCRTNSSVSSSYLHWYQQKSGASPKLWIYGTSNLASGVPTRFSGSGSGTSYSLTISSVEAGDAATYFCQQYSGYPLTFGGGTKVEIKRTVAAPSVFIFPPSDEQLKSGTASVVCLLNNFYPREAKVQWKVDNALQSGNSQESVTEQDSKDSTYSLSSTLTLSKADYEKHKVYACEVTHQGLSSPVTKSFNRGEC
B15: XENP37388 – αCD5 (Cd5-B) x αTGFßRII (bispecific antibody)
heavy: QVTLKESGAELVRPGASVKLSCKASGYSFTSYWMNWVKQRPGQGLEWIGMIHPSDSETRLNQKFKDKATLTVDKSSSTAYMQLSSPTSEDSAVYYCARWGDHDDAMDFWGQGTMVTVSSASTKGPSVFPLAPSSKSTSGGTAALGCLVKDYFPEPVTVSWNSGALTSGVHTFPAVLQSSGLYSLSSVVTVPSSSLGTQTYICNVNHKPSDTKVDKKVEPKSCDKTHTCPPCPAPPVAGPSVFLFPPKPKDTLMISRTPEVTCVVVDVKHEDPEVKFNWYVDGVEVHNAKTKPREEEYNSTYRVVSVLTVLHQDWLNGKEYKCKVSNKALPAPIEKTISKAKGQPREPQVYTLPPSREEMTKNQVSLTCDVSGFYPSDIAVEWESDGQPENNYKTTPPVLDSDGSFFLYSKLTVDKSRWEQGDVFSCSVMHEALHNHYTQKSLSLSPGK
scFv-Fc: QLQVQESGPGLVKPSETLSLTCTVSGGSISNSYFSWGWIRQPPGKGLEWIGSFYYGEKTYYNPSLKSRATISIDTSKSQFSLKLSSVTAADTAVYYCPRGPTVIRGVIDSWGQGTLVTVSSGKPGSGKPGSGKPGSGKPGSEIVLTQSPATLSLSPGERATLSCRASQSVRSYLAWYQQKPGQAPRLLIYDASNRATGIPARFSGSGSGTDFTLTISSLEPEDFAVYYCQQRSNWPPTFGQGTKVEIKEPKSSDKTHTCPPCPAPPVAGPSVFLFPPKPKDTLMISRTPEVTCVVVDVKHEDPEVKFNWYVDGVEVHNAKTKPREEQYNSTYRVVSVLTVLHQDWLNGKEYKCKVSNKALPAPIEKTISKAKGQPREPQVYTLPPSREQMTKNQVKLTCLVKGFYPSDIAVEWESNGQPENNYKTTPPVLDSDGSFFLYSKLTVDKSRWQQGNVFSCSVMHEALHNHYTQKSLSLSPGK
light: DIVLTQSPASLSASVGESVTITCRPSENIYGYFAWYQQRQGKSPQLLVYNAKTLAEGVPSRFSGSGSGTHFSLKINSLQPEDFGTYYCQHHYGTPFTFGPGTKVDIKRTVAAPSVFIFPPSDEQLKSGTASVVCLLNNFYPREAKVQWKVDNALQSGNSQESVTEQDSKDSTYSLSSTLTLSKADYEKHKVYACEVTHQGLSSPVTKSFNRGEC

The target in one assay is T1, human TGFßRII (antigen of the Octet experiments) (human, UniProt P37173 23-166). Briefly: BLI (Octet). In general terms: BLI is a label-free optical method that tracks binding on a fibre tip over time.
T1 sequence (P37173 23-166): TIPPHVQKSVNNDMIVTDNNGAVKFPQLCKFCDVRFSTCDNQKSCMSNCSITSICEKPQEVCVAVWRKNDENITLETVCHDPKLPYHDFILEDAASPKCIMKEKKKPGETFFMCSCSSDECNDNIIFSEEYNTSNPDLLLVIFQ
The molecule B1 displayed a Kd of 311 pM.

The molecule B2 returned a Kd of 1 pM. Take B3: the Kd worked out at 296 pM. The same measure, in the same setting: next, B4: 888 pM. In turn, B5 gave a dissociation constant (Kd) of 596 pM.

Turning to B6, the Kd came out at 38000 pM. This Kd lies about 64-fold higher than the previous one.

B7 had a Kd of 642 pM. Still for that read-out and setting: as for B8, the figure is 666 pM.

The molecule B9 displayed a Kd of 604 pM. This Kd and that of the molecule before are within 1.5-fold of each other.

For the next assay, the target named is T1, human TGFßRII (antigen of the Octet …). Briefly: Octet.
Turning to B10, binding was put at a Kd of 2920 pM. In other words, the single-digit nanomolar range.

Another assay shares this target. Briefly: BLI (Octet). The source holds these as a separate data set.
For B11, the Kd is 374 pM. With B12, the Kd stood at 352 pM. The same measure, in the same setting: next, B13: 112 pM.

A further assay deals with Cyno (cynomolgus monkey). Nature of the assay: Octet.
B14 had a Kd of 11300 pM. In the case of B15, the Kd was determined as 740 pM.
